Test results: US20260250379A1 (HANGZHOU SUMGEN BIOTECH, published 2026)
Changes are numbered by the printed parent chain. Where two headings read alike, the source gives them in different places. Values belong to the binder of their own block, whether it stands above or below them.

What was measured:
[1] = molecular target: T1, LILRB4 (Beijing ACROBiosystems, article number LI4-H52H7, 6xHis label) (human, UniProt Q8NHJ6 22-259); test: SPR, BIACORE 8K; antibody captured on Protein A chip, LILRB4-6xHis as analyte
T1 construct: Analyte (mobile phase) in the BIACORE 8K assay; also called Human LILRB4; not shown: 6xHis label
Description: A BIACORE 8K biomacromolecule interactor (GE Company) was adopted to analyze the affinity of an antibody. A Series S Sensor Chip Protein A Chip (GE Company) was used for capturing an antibody to be detected, the concentration of the antibody to be detected was set to be 15 μg/mL, and the sample was fed at a speed of 10 μl/min until RU=500; LILRB4 (Beijing ACROBiosystems, article number: LI4-H52H7, 6×His label, and the theoretical molecular weight: 28.2 Kda) was used as a mobile phase, 6 concentration gradients (0.0977 nM-200 nM) were used, and the binding time was 180 sec; and the dissociation time was 300 sec. The result of the affinity of the antibody to be detected is as set forth in follows: […]

[2] = molecular target: T2, LILRB4 on LILRB4 effector reporter cells (jurkat-LILRB4) (UniProt Q8NHJ6 22-448); test: cell-based or functional assay
[3] = molecular target: T3, Human LILRB4/CD85k/ILT3 Protein (ECD, His Tag), Sino Biological (human, UniProt Q8NHJ6 22-259); test: ELISA, human LILRB4 ECD-His coated, HRP goat anti-human IgG Fc, OD450
T3 construct: extracellular domain; It is not tied to this bought protein; also called LILRB4 protein; not shown: His tag

[4] = molecular target: T4, LILRB4 on human mononuclear leukemia cells THP-1 (human, UniProt Q8NHJ6 22-448); test: flow cytometry on THP-1 cells, PE goat anti-human IgG Fc, MFI
T4 construct: whole, on cells; The protein is endogenous to the cells; also called LILRB4 positive cells THP-1

[5] = molecular target: human LILRB4 on 293T-hLILRB4 cells (human, UniProt Q8NHJ6 22-448); test: cell-based or functional assay
[6] = molecular target: T5, Human LILRB2/ILT4/LIR-2 Protein (ECD, His Tag), Sino Biological (human, UniProt Q8N423 22-460); test: ELISA, LILRB family proteins (His tag) coated, antibody at 10 ug/mL, HRP goat anti-human IgG Fc, OD450
T5 construct: extracellular domain; not shown: His tag

[7] = molecular target: T6, Human LILRB1/CD85/ILT2/ILR1 Protein (ECD, His Tag), Sino Biological (human, UniProt Q8NHL6 24-461); test: as above
T6 construct: extracellular domain; not shown: His tag

[8] = molecular target: T7, Human LILRB5/CD85c/LIR-8 Protein (ECD, His Tag), Sino Biological (human, UniProt O75023 24-458); test: as above
T7 construct: extracellular domain; not shown: His tag

[9] = molecular target: T8, Human LILRB3/LIR3/ILT5/CD85a Protein (ECD, His Tag), Sino Biological (human, UniProt O75022 24-443); test: as above
T8 construct: extracellular domain; not shown: His tag

[10] = molecular target: T3, Human LILRB4/CD85k/ILT3 Protein (ECD, …); test: ELISA, human LILRB4 ECD-His coated, HRP goat anti-human IgG Fc, OD450; remark: listed apart in the source
[11] = molecular target: T2, LILRB4 on LILRB4 effector reporter …; test: cell-based or functional assay; remark: listed apart in the source
[12] = molecular target: T2, LILRB4 on LILRB4 effector reporter …; test: cell-based or functional assay; remark: listed apart in the source

T6 sequence (Q8NHL6 24-461): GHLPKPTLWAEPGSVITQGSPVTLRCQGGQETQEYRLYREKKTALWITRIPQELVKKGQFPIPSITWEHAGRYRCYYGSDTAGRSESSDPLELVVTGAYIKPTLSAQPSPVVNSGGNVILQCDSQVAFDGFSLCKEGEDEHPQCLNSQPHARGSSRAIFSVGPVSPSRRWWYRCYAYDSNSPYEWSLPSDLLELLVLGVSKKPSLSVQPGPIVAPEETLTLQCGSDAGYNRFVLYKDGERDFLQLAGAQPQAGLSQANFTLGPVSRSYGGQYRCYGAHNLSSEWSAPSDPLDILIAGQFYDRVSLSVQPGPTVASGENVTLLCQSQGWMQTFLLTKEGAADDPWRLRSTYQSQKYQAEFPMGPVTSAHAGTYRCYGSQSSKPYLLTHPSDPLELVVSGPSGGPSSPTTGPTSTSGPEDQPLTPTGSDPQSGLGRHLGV
T8 sequence (O75022 24-443): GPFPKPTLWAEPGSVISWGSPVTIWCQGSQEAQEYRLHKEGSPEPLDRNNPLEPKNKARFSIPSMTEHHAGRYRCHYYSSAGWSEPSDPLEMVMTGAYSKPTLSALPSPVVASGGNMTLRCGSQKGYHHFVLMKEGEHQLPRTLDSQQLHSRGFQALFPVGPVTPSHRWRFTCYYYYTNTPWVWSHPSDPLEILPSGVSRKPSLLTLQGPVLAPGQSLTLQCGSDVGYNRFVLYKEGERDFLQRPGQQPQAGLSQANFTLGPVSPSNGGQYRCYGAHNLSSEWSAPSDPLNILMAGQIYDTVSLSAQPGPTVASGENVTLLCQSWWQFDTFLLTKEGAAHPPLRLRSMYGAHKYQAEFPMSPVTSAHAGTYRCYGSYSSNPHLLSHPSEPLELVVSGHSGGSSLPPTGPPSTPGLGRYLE
T7 sequence (O75023 24-458): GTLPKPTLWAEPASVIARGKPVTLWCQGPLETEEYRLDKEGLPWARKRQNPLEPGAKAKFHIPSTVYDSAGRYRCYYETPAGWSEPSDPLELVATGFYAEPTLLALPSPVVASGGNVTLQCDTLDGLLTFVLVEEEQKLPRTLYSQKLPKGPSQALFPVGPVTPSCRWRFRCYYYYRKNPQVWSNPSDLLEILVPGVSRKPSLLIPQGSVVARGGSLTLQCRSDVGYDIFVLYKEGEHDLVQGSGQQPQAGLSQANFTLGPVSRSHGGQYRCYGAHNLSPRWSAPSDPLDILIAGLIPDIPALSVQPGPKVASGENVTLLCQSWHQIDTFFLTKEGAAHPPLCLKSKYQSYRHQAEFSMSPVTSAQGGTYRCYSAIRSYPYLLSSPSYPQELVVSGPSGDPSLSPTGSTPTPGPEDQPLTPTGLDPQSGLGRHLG
T5 sequence (Q8N423 22-460): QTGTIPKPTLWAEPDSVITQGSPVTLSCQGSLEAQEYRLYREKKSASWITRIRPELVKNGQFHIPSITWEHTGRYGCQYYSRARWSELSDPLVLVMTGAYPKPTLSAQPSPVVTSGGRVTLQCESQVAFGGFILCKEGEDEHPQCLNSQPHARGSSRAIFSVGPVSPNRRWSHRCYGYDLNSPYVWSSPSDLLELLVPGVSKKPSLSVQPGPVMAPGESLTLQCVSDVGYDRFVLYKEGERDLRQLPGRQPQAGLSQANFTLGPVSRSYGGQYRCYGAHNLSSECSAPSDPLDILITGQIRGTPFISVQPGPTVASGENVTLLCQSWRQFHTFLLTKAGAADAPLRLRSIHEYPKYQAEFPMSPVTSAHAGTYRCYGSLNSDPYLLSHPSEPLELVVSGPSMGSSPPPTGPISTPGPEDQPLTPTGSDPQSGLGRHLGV

B1: humanized antibody RB4-G1-018 (antibody, human IgG1, kappa, V domains shown)
VH: QVQLVQSGAEVKKPGASVKVSCKASGYTFTSYWMHWVRQAPGQGLEWIGEINPSNGRTNYNEKFKSRATLTVDKSTSTAYMELSSLRSEDTAVYYCARDRYDEGNAMDYWGQGTTVTVSS
VL: DIQMTQSPSSLSASVGDRVTITCRASQDITNYLNWYQQKPGKAPKLLIYYTSRLHSGVPSRFSGSGSGTEYTLTISSLQPDDFATYYCQQGDTLPRTFGQGTRLEIKR
Kd [1]: 2.81 nM
koff [1]: 0.00433 s⁻¹
kon [1]: 1.54e+06 M⁻¹ s⁻¹
EC50 (read off the curve); luciferase RLU, blocking of APOE [2]: ~10 ng/mL
EC50 (read off the curve) [3]: ~30 ng/mL
EC50 (read off the curve) [4]: ~30 ng/mL
EC50 (read off the curve); ADCC reporter induction multiple [5]: ~60 ng/mL

B4: humanized antibody RB4-G1-022 (antibody, human IgG1, kappa, V domains shown)
VH: B1 VH
VL: B1 VL with E70D, L73F, D81E, F83I
Kd [1]: 2.33 nM
koff [1]: 0.00418 s⁻¹
kon [1]: 1.8e+06 M⁻¹ s⁻¹
EC50 (read off the curve); luciferase RLU, blocking of APOE [2]: ~20 ng/mL
EC50 (read off the curve) [3]: ~30 ng/mL
EC50 (read off the curve) [4]: ~40 ng/mL
EC50 (read off the curve); ADCC reporter induction multiple [5]: ~50 ng/mL

B5: chimeric antibody 1A2-7 (antibody, V domains shown)
VH: QVQLQQPGAELVKPGASVKLSCKASGYTFTSYWMHWVKQRPGQGLEWIGEINPSNGRTNYNEKFKSKATLTVDKSSSTAYMQLNSLTSEDSAVYYCARDRYDEGNAMDYWGQGTSVTVSS
VL: DIVMTQTTSSLSASLGDRVTISCRASQDITNYLNWYQQKPDGTVKLLIYYTSRLHSGVPSRFSGSGSGTDYSLTISNLEQEDIATYFCQQGDTLPRTFGGGTKLEIK
binding result [6]: no binding (tested: 10 ug/mL)
binding result [7]: no binding (tested: 10 ug/mL)
binding result [8]: no binding (tested: 10 ug/mL)
binding result [9]: no binding (tested: 10 ug/mL)
EC50 (read off the curve) [10]: ~30 ng/mL
EC50 (read off the curve); luciferase RLU, blocking of APOE [11]: ~0.03 ng/mL

B7: chimeric antibody 3A2-18 (antibody, V domains shown)
VH: B5 VH with Q1E, M81V
VL: B5 VL
notes: Full chains are not tied by name
binding result [6]: no binding (tested: 10 ug/mL)
binding result [7]: no binding (tested: 10 ug/mL)
binding result [8]: no binding (tested: 10 ug/mL)
binding result [9]: no binding (tested: 10 ug/mL)
EC50 (read off the curve) [10]: ~30 ng/mL
EC50 (read off the curve); luciferase RLU, blocking of APOE [12]: ~10 ng/mL

B8: chimeric antibody 5E11-2 (antibody, V domains shown)
VH: EVKLEESGGGLVQPGGSMKLSCAASGFTFSDAWMDWVRQSPEKGLEWVAEIRSKPNNHATYYAESVKGRFTISRDDSKSSVYLQMNSLRAEDTGIYYCTRTTDYSMDYWGQGTSVTVSS
VL: DIQMTQSPASLAVSLGQRATISCRASQSVSASSYSYMHWYQQKPGQPPKLLIKYASNLQSGVPARFSGSGSGTDFTLNIHPVEEEDSATYYCQHSWEIPRTFGGGTKLEIK
notes: as for B7
binding result [6]: no binding (tested: 10 ug/mL)
binding result [7]: no binding (tested: 10 ug/mL)
binding result [8]: no binding (tested: 10 ug/mL)
binding result [9]: no binding (tested: 10 ug/mL)
EC50 (read off the curve) [10]: ~50 ng/mL

More lines, now with the values ahead:

Kd [1]: 3.29 nM
koff [1]: 0.00834 s⁻¹
kon [1]: 2.53e+06 M⁻¹ s⁻¹
EC50 (read off the curve); luciferase RLU, blocking of APOE [2]: ~20 ng/mL
EC50 (read off the curve) [3]: ~30 ng/mL
EC50 (read off the curve) [4]: ~30 ng/mL
EC50 (read off the curve); ADCC reporter induction multiple [5]: ~60 ng/mL
B2: humanized antibody RB4-G1-020 (antibody, human IgG1, kappa, V domains shown)
VH: B1 VH with I48M, A68V, L70M, V72R, K74T, A79V
VL: B1 VL

Kd [1]: 2.77 nM
koff [1]: 0.00343 s⁻¹
kon [1]: 1.24e+06 M⁻¹ s⁻¹
EC50 (read off the curve); luciferase RLU, blocking of APOE [2]: ~10 ng/mL
EC50 (read off the curve) [3]: ~30 ng/mL
EC50 (read off the curve) [4]: ~30 ng/mL
EC50 (read off the curve); ADCC reporter induction multiple [5]: ~60 ng/mL
B3: humanized antibody RB4-G1-019 (antibody, human IgG1, kappa, V domains shown)
VH: B1 VH with I48M, A68V, A79V
VL: B1 VL

binding result [6]: no binding (tested: 10 ug/mL)
binding result [7]: no binding (tested: 10 ug/mL)
binding result [8]: no binding (tested: 10 ug/mL)
binding result [9]: no binding (tested: 10 ug/mL)
EC50 (read off the curve) [10]: ~20 ng/mL
B6: chimeric antibody 3G9-1 (antibody, V domains shown)
VH: QVQLQQPGAELVKPGASVKLSCKASGYTFTSYWMHWVKQRPGQGLEWIGEINPSNGRTNYNEKFKSKATLIVDKSSSTAYMQLSSLTSEDSAVYYCARGIYYGYDYAMDYWGQGTSVTVSS
VL: B5 VL with V3Q, Q6H, T30S, D92N, R96P
notes: as for B7
